Each block holds one binder with its values, some of them ahead of it. Square brackets hold non-standard residues; d marks the D form. Primed or numbered codes have the meaning given here. Ends that are not written are not given here. * marks the point of attachment. azaTic = 3,4-dihydropyridazine-2(H)-formic acid; Pro(5R-Ph) = O=C(O)[C@@H]1CC[C@H](c2ccccc2)N1; Pro(4Ph)″ = 4-phenylproline (Pro(4-phenyl)); Bip = N[C@@H](Cc1ccc(-c2ccccc2)cc1)C(=O)O; PEG8 = NCCOCCOCCOCCOCCOCCOCCOCCOCCC(=O)O; Gly(Nα-CH2CH2CONH2) = NC(=O)CCNCC(=O)O; 1Nal = N[C@@H](Cc1cccc2ccccc12)C(=O)O; 2Nal = N[C@@H](Cc1ccc2ccccc2c1)C(=O)O; dNMeY = CN[C@H](Cc1ccc(O)cc1)C(=O)O; Hydrocinnamoyl = O=C(CCc1ccccc1)*; Palmitoyl = CCCCCCCCCCCCCCCC(=O)*; NMeQ = CN[C@@H](CCC(N)=O)C(=O)O; Tic = O=C(O)[C@@H]1Cc2ccccc2CN1; NMeL = CN[C@@H](CC(C)C)C(=O)O; NMeV = CN[C@H](C(=O)O)C(C)C; NMeS = CN[C@@H](CO)C(=O)O; dNMeS = CN[C@H](CO)C(=O)O; Thz = O=C(O)[C@@H]1CSCN1; dNMeA = CN[C@H](C)C(=O)O; dTi1c = not defined here; Nleu = CC(C)CNCC(=O)O; βAla = NCCC(=O)O
Molecular target: T1, human Chemokine like receptor 1 (human, UniProt Q99788 1-373)
T1 sequence (looked up): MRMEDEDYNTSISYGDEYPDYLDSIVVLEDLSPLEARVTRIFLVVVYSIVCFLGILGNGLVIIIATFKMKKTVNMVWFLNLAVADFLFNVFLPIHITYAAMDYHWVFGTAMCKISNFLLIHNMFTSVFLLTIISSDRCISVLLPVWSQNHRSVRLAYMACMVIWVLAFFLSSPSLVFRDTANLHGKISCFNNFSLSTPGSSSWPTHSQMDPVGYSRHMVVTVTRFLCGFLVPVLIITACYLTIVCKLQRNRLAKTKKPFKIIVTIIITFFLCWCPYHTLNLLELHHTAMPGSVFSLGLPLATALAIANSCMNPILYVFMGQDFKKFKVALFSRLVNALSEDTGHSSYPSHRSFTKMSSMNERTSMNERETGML
Assay: cell-based or functional assay

B5: YW-94 (peptide)
peptide: [dY]FLP[dS]QF[dA][Ala(dip)]S-OH
EC50 (µM), activation of Tango CMKLR1-bla U2OS cells: 8.7 µM

B6: YW-91 (peptide)
peptide: [dY]FLP[dS]QF[dA][Pro(5R-Ph)]S-OH
modifications: N-terminus assumed
SMILES: CC(C)C[C@H](NC(=O)[C@H](Cc1ccccc1)NC(=O)[C@H](N)Cc1ccc(O)cc1)C(=O)N1CCC[C@H]1C(=O)N[C@H](CO)C(=O)N[C@@H](CCC(N)=O)C(=O)N[C@@H](Cc1ccccc1)C(=O)N[C@H](C)C(=O)N1[C@@H](c2ccccc2)CC[C@H]1C(=O)N[C@@H](CO)C(=O)O
EC50 (µM), activation of Tango CMKLR1-bla U2OS cells: 0.46 µM

B7: YW-108 (peptide)
peptide: [dY]FLP[dS][Gly(Nα-CH2CH2CONH2)]F[dA][Tic]S-OH
EC50 (µM), activation of Tango CMKLR1-bla U2OS cells: > 50 µM

B8: YW-92 (peptide)
peptide: [dY]FLP[dS]QF[dA][Pro(4Ph)″]S-OH
EC50 (µM), activation of Tango CMKLR1-bla U2OS cells: 1 µM

B12: YW-95 (peptide)
peptide: [dY]FLP[dS]QF[dA][Bip]S-OH
EC50 (µM), activation of Tango CMKLR1-bla U2OS cells: 30 µM

B14: YW-106 (peptide)
peptide: [dY]FLP[dNMeS]QF[dA][Tic]S-OH
EC50 (µM), activation of Tango CMKLR1-bla U2OS cells: 24 µM

B18: YW-99 (peptide)
peptide: [dY]F[NMeV]P[dS]QF[dA][Tic]S-OH
EC50 (µM), activation of Tango CMKLR1-bla U2OS cells: 12 µM

B20: YW-90 (peptide)
peptide: [dY]FLP[dS]QF[dA][S‑Pip]S-OH
EC50 (µM), activation of Tango CMKLR1-bla U2OS cells: > 50 µM

B21: YW-107 (peptide)
peptide: [dY]FLP[dS][NMeQ]F[dA][Tic]S-OH
EC50 (µM), activation of Tango CMKLR1-bla U2OS cells: > 50 µM

B22: YW-125 (peptide)
peptide: [dNMeY]F[NMeL][Thz][dS]Q[2Nal][dA][Tic][NMeS]-OH
modifications: N-terminus assumed
SMILES: CN[C@H](Cc1ccc(O)cc1)C(=O)N[C@@H](Cc1ccccc1)C(=O)N(C)[C@@H](CC(C)C)C(=O)N1CSC[C@H]1C(=O)N[C@H](CO)C(=O)N[C@@H](CCC(N)=O)C(=O)N[C@@H](Cc1ccc2ccccc2c1)C(=O)N[C@H](C)C(=O)N1Cc2ccccc2C[C@H]1C(=O)N(C)[C@@H](CO)C(=O)O
EC50 (µM), activation of Tango CMKLR1-bla U2OS cells: 0.0006 µM

B23: YW-109 (peptide)
peptide: [dY]FLP[dS]QF[dNMeA][Tic]S-OH
EC50 (µM), activation of Tango CMKLR1-bla U2OS cells: 11 µM

B24: YW-102 (peptide)
peptide: [dY]F[Nleu]P[dS]QF[dA][Tic]S-OH
EC50 (µM), activation of Tango CMKLR1-bla U2OS cells: 0.31 µM

B26: YW-98 (peptide)
peptide: [dY]F[NMeL]P[dS]QF[dA][Tic]S-OH
modifications: N-terminus assumed
SMILES: CC(C)C[C@@H](C(=O)N1CCC[C@H]1C(=O)N[C@H](CO)C(=O)N[C@@H](CCC(N)=O)C(=O)N[C@@H](Cc1ccccc1)C(=O)N[C@H](C)C(=O)N1Cc2ccccc2C[C@H]1C(=O)N[C@@H](CO)C(=O)O)N(C)C(=O)[C@H](Cc1ccccc1)NC(=O)[C@H](N)Cc1ccc(O)cc1
EC50 (µM), activation of Tango CMKLR1-bla U2OS cells: 0.003 µM

Continued, values first:

EC50 (µM), activation of Tango CMKLR1-bla U2OS cells: 0.0009 µM
B1: YW-142 (peptide)
peptide: [dNMeY]F[NMeL][Thz][dS]Q[1Nal][dA][Tic][NMeS]-OH
modifications: N-terminus assumed
SMILES: CN[C@H](Cc1ccc(O)cc1)C(=O)N[C@@H](Cc1ccccc1)C(=O)N(C)[C@@H](CC(C)C)C(=O)N1CSC[C@H]1C(=O)N[C@H](CO)C(=O)N[C@@H](CCC(N)=O)C(=O)N[C@@H](Cc1cccc2ccccc12)C(=O)N[C@H](C)C(=O)N1Cc2ccccc2C[C@H]1C(=O)N(C)[C@@H](CO)C(=O)O

EC50 (µM), activation of Tango CMKLR1-bla U2OS cells: 0.285 µM
B2: YW-160 (peptide)
peptide: [dY]FLP[dS]QF[dA][Tic]T-OH
modifications: N-terminus assumed
SMILES: CC(C)C[C@H](NC(=O)[C@H](Cc1ccccc1)NC(=O)[C@H](N)Cc1ccc(O)cc1)C(=O)N1CCC[C@H]1C(=O)N[C@H](CO)C(=O)N[C@@H](CCC(N)=O)C(=O)N[C@@H](Cc1ccccc1)C(=O)N[C@H](C)C(=O)N1Cc2ccccc2C[C@H]1C(=O)N[C@H](C(=O)O)[C@@H](C)O

EC50 (µM), activation of Tango CMKLR1-bla U2OS cells: 0.0055 µM
B3: YW-132 (peptide)
peptide: [dY]FLP[dS]QF[dA][Tic]S-OH
modifications: not fully specified (N-terminus); printed as 3,5-dihydroxyphenylacetyl-(D-Tyr)-Phe-Leu-Pro-(D-Ser)-Gln-Phe-(D-Ala)-Tic-Ser-OH

EC50 (µM), activation of Tango CMKLR1-bla U2OS cells: > 50 µM
B4: YW-147 (peptide)
peptide: [dY]FLP[dS]Q[dS][dA][azaTic]S-OH

EC50 (µM), activation of Tango CMKLR1-bla U2OS cells: 0.0007 µM
B9: YW-134 (peptide)
peptide: {Palmitoyl-PEG8}-[βAla][βAla][dY]F[NMeL]P[dS]QF[dA][Tic]S-OH
SMILES: CCCCCCCCCCCCCCCC(=O)NCCOCCOCCOCCOCCOCCOCCOCCOCCC(=O)NCCC(=O)NCCC(=O)N[C@H](Cc1ccc(O)cc1)C(=O)N[C@@H](Cc1ccccc1)C(=O)N(C)[C@@H](CC(C)C)C(=O)N1CCC[C@H]1C(=O)N[C@H](CO)C(=O)N[C@@H](CCC(N)=O)C(=O)N[C@@H](Cc1ccccc1)C(=O)N[C@H](C)C(=O)N1Cc2ccccc2C[C@H]1C(=O)N[C@@H](CO)C(=O)O

EC50 (µM), activation of Tango CMKLR1-bla U2OS cells: 0.0005 µM
B10: YW-148 (peptide)
peptide: [dNMeY]F[NMeL][Thz][dS]Q[2Nal][dA][Tic]S-OH
modifications: N-terminus assumed
SMILES: CN[C@H](Cc1ccc(O)cc1)C(=O)N[C@@H](Cc1ccccc1)C(=O)N(C)[C@@H](CC(C)C)C(=O)N1CSC[C@H]1C(=O)N[C@H](CO)C(=O)N[C@@H](CCC(N)=O)C(=O)N[C@@H](Cc1ccc2ccccc2c1)C(=O)N[C@H](C)C(=O)N1Cc2ccccc2C[C@H]1C(=O)N[C@@H](CO)C(=O)O

EC50 (µM), activation of Tango CMKLR1-bla U2OS cells: 0.0022 µM
B11: YW-163 (peptide)
peptide: [dNMeY]F[NMeL]P[dS]QF[dA][Tic]S-OH
modifications: N-terminus assumed
SMILES: CN[C@H](Cc1ccc(O)cc1)C(=O)N[C@@H](Cc1ccccc1)C(=O)N(C)[C@@H](CC(C)C)C(=O)N1CCC[C@H]1C(=O)N[C@H](CO)C(=O)N[C@@H](CCC(N)=O)C(=O)N[C@@H](Cc1ccccc1)C(=O)N[C@H](C)C(=O)N1Cc2ccccc2C[C@H]1C(=O)N[C@@H](CO)C(=O)O

EC50 (µM), activation of Tango CMKLR1-bla U2OS cells: 0.003 µM
B13: YW-161 (peptide)
peptide: Hydrocinnamoyl-[dY]F[NMeL]P[dS]QF[dA][Tic]S-NH2
SMILES: CC(C)C[C@@H](C(=O)N1CCC[C@H]1C(=O)N[C@H](CO)C(=O)N[C@@H](CCC(N)=O)C(=O)N[C@@H](Cc1ccccc1)C(=O)N[C@H](C)C(=O)N1Cc2ccccc2C[C@H]1C(=O)N[C@@H](CO)C(N)=O)N(C)C(=O)[C@H](Cc1ccccc1)NC(=O)[C@@H](Cc1ccc(O)cc1)NC(=O)CCc1ccccc1

EC50 (µM), activation of Tango CMKLR1-bla U2OS cells: 0.0085 µM
B15: YW-153 (peptide)
peptide: [dY]F[NMeL]P[dS]QF[dA][dTi1c]S-OH
modifications: reading uncertain; also: printed as (D-Tyr)-Phe-(NMe-Leu)-Pro-(D-Ser)-Gln-Phe-(D-Ala)-(D-Ti1c)-Ser

EC50 (µM), activation of Tango CMKLR1-bla U2OS cells: 0.0007 µM
B16: YW-133 (peptide)
peptide: {Palmitoyl-PEG8}-GG[dY]F[NMeL]P[dS]QF[dA][Tic]S-OH
SMILES: CCCCCCCCCCCCCCCC(=O)NCCOCCOCCOCCOCCOCCOCCOCCOCCC(=O)NCC(=O)NCC(=O)N[C@H](Cc1ccc(O)cc1)C(=O)N[C@@H](Cc1ccccc1)C(=O)N(C)[C@@H](CC(C)C)C(=O)N1CCC[C@H]1C(=O)N[C@H](CO)C(=O)N[C@@H](CCC(N)=O)C(=O)N[C@@H](Cc1ccccc1)C(=O)N[C@H](C)C(=O)N1Cc2ccccc2C[C@H]1C(=O)N[C@@H](CO)C(=O)O

EC50 (µM), activation of Tango CMKLR1-bla U2OS cells: 0.0026 µM
B17: YW-162 (peptide)
peptide: [dNMeY]F[NMeL]P[dS]Q[1Nal][dA][Tic][NMeS]-OH
modifications: N-terminus assumed
SMILES: CN[C@H](Cc1ccc(O)cc1)C(=O)N[C@@H](Cc1ccccc1)C(=O)N(C)[C@@H](CC(C)C)C(=O)N1CCC[C@H]1C(=O)N[C@H](CO)C(=O)N[C@@H](CCC(N)=O)C(=O)N[C@@H](Cc1cccc2ccccc12)C(=O)N[C@H](C)C(=O)N1Cc2ccccc2C[C@H]1C(=O)N(C)[C@@H](CO)C(=O)O

EC50 (µM), activation of Tango CMKLR1-bla U2OS cells: 0.0014 µM
B19: YW-146 (peptide)
peptide: [dNMeY]F[NMeL]P[dS]Q[2Nal][dA][Tic][NMeS]-OH
modifications: N-terminus assumed
SMILES: CN[C@H](Cc1ccc(O)cc1)C(=O)N[C@@H](Cc1ccccc1)C(=O)N(C)[C@@H](CC(C)C)C(=O)N1CCC[C@H]1C(=O)N[C@H](CO)C(=O)N[C@@H](CCC(N)=O)C(=O)N[C@@H](Cc1ccc2ccccc2c1)C(=O)N[C@H](C)C(=O)N1Cc2ccccc2C[C@H]1C(=O)N(C)[C@@H](CO)C(=O)O

EC50 (µM), activation of Tango CMKLR1-bla U2OS cells: 0.0029 µM
B25: YW-131 (peptide)
peptide: {3,5‑dihydroxyphenylacetyl}-[dY]FLP[dS]QF[dA][Tic]S

— patent US20210403506A1 (XDCEXPLORER SHANGHAI, published 2021)
